Tested on: MS2 coat protein
Test: apparent KD of MS2 coat protein; designed switch direction (-1 OFF switch, 1 ON switch): -1; higher = weaker reporter binding
In short: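 For each design, the apparent KD is the median over clusters of curves fitted to normalised cluster fluorescence. Clusters held RNA switches with common flanks, transcribed on Illumina chips by stalled E. coli RNA polymerase. These were titrated with SNAP-549-labelled MS2 coat protein, doubling from 0.7 or 1.5 nM to 3 µM, without input, with 200 uM small-molecule ligand, or with an oligonucleotide input.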

[1] = Eterna round: R95, input ligand: microRNA oligo, concentration not stated
[2] = input ligand: microRNA oligo, concentration not stated
[3] = Eterna round: R95, input ligand: FMN 200 uM
[4] = Eterna round: R95, input ligand: none

Row | Sequence | apparent KD of MS2 coat protein (input ligand: FMN 200 uM) | apparent KD of MS2 coat protein (input ligand: none) | apparent KD of MS2 coat protein [1] | apparent KD of MS2 coat protein [2] | apparent KD of MS2 coat protein [3] | apparent KD of MS2 coat protein [4]
1 | GUUAUCGCAGGAUAUUAGUACUUGUACAUGAGGAUCACCCAUGUUUAUUGGGACUAAGAAUAAGAAGGGCGAUGAA [JR_Ex5_Sub004] (Eterna round: R97, puzzle: Exclusion 5) | 21 nM | 17.8 nM |  |  |  | 
2 | GCAGAGGUAGUGAGGAUAUGCUCUACCUCGGUAGAGCAGAAGGCACAUGAGGAUCACCCAUGUGAUUCUUCUGC [Omei Ex4B B9] (Eterna round: R97, puzzle: Brourd's mod of Exclusion 4) | 15 nM | 13.2 nM |  |  |  | 
3 | AAGAAACAUGAGGAUCACCCAUGUGAGGAUAUGAGCACGCCGGUGACGGUGAUAAGAAUCAGAAGGCACAAAGG [JL-ex1-4.34 salish99 mod] (Eterna round: R97, puzzle: Exclusion 1) | 93 nM | 77.8 nM |  |  |  | 
4 | AAUAACAGAGGAUAUACUAUUUUAUGUGUUUAUUGUUUUGAACAUGAGGAUCACCCAUGUAGAAGGCUGAAUGA [JMF 67] (puzzle: Exclusion 2) |  |  | 25.8 nM |  |  | 
5 | CUGUUUUUCGCAGGAUAUGCUCCUCCUUUAUUAGCAGAAGGGCGUUAAACAUGAGGAUCACCCAUGUAUGGUAAUGACAUUUUC [JR_ExcNG1_Sub062] (Eterna round: R96, puzzle: Exclusion NG 1) |  |  |  | 29.8 nM |  | 
6 | GAUCAUGCAGGAUAUACAUUAACCAUGAAAACAUGGUUGUCACAUGAGGAUCACCCAUGUAGAAGGGCAUGAUC [Omei Ex2 A6] (Eterna round: R97, puzzle: Exclusion 2) | 37.2 nM | 23.5 nM |  |  |  | 
7 | CAGUACUGAGGAUAUACAUGAGGAUCACCCAUGUGUUCCAGCUAGGAAACUAGCAAAAGUAGAAGGCAGUACUG [Ex3: 828] (Eterna round: R96, puzzle: Exclusion 3) | 646 nM | 25.9 nM |  | 22.1 nM |  | 
8 | CUUAUGUGAGGAUAUCAGUAGUGAUACGAUAGUAUUACUGCUGAGAAGGCACAUGAGGAUCACCCAUGUUCCUC [Exclusion 4 - Mod Omei Ex4 344 mod 4 v.2] (puzzle: Exclusion 4) |  |  | 91.6 nM |  |  | 
9 | AUUUUAAUAUAGGAUAUCGAAAUUAUUAUUUAACGAGAAGGAUGAACAUGAGGAUCACCCAUGUGGUAUCAUGG [Mat - Exclusion 6 - JL Mod - D31] (puzzle: Exclusion 6) |  |  | 192 nM |  |  | 
10 | UCGUCCUGUGUAGGAUAUCGCGGGCUUUGCCCGCGAGAAGGACAUGAGGAUCACCCAUGUGGGCCGCGCCGCGGGCGCGGCCCA [new design] (Eterna round: R96, puzzle: Exclusion NG 1) | 1360 nM | 230 nM |  | 4700 nM |  | 
11 | UAAUGUGCGAGAGGAUAUCGUGUACAAAGUACACGAGAAGGCUUCACAUGAGGAUCACCCAUGUACCGAGGUGAAACACCUUGG [Omei Exc(NG)1 Bv1] (Eterna round: R96, puzzle: Exclusion NG 1) | 355 nM | 220 nM |  | 171 nM |  | 
12 | UUUUAGAGAGGAUAUAUAAAGUGAAACAUGAGGAUCACCCAUGUAAUUUUAUGGAUGUAAAUAGAAGGCUCAUUUU [Mat - Exclusion 5 - JL mod - D2] (puzzle: Exclusion 5) |  |  | 34.2 nM |  | 27.8 nM | 34.7 nM
13 | GCAGUGACAUGAGGAUCACCCAUGUGGAACUCGUGAAUAAGCGAGGAUAUCUCAAGAUAUCAAAGAGAGAAGGCGUACACUGCA [Diorso] (Eterna round: R96, puzzle: Exclusion NG 3) | 731 nM | 229 nM |  | 159 nM |  | 
14 | AGUACUAUCACGAAAGUGAUAGUACAAUGAGCUUUUGAAACAUGAGGAUCACCCAUGUCCUCAUAAGCUCGUCUUAU [JL turnoff v2 52] (Eterna round: R96, puzzle: Sensor v2, turn-off variant 2) | 17.4 nM | 18.9 nM |  | 123 nM |  | 
15 | AAAGAAGAGAGAAAAUAACACAUGAGGAUCACCCAUGUGCGAUGUUGAGGGUGAUACAGGCUUUUUGCUCGUCUUAU (puzzle: Sensor v3, turn-off variant 1) |  |  | 512 nM |  | 311 nM | 199 nM
16 | UGCAAUCUUAUGAUAUCUCACAUGAGGAUCACCCAUGUGCUCGUCUUAUGUUCUGUUUUGCUGUUGUCCGGCCGGCC [1st try] (Eterna round: R97, puzzle: Sensor, turn-off variant 1) | 27.5 nM | 31.3 nM |  |  |  | 

Row | Sequence | apparent KD of MS2 coat protein (input ligand: FMN 200 uM) | apparent KD of MS2 coat protein (input ligand: none) | apparent KD of MS2 coat protein [1] | apparent KD of MS2 coat protein [2] | apparent KD of MS2 coat protein [3] | apparent KD of MS2 coat protein [4]
17 | UUGUCGGCAGGAUAUACAUGAGGAUCACCCAUGUAAAUUUUUCGUUUAACUUGAAUGUGUAGAAGGGCCAUGUU [Ex3 #71] (Eterna round: R97, puzzle: Exclusion 3) | 35.3 nM | 24.5 nM |  |  |  | 
18 | CGAACCCGAGGAUAUCGUAAACCCGACAUGAGGAUCACCCAUGUCAUCCUCACGGCGCCACGAGAAGGCGGUGUUU [Leinat] (puzzle: Exclusion 5) |  |  | 43.7 nM |  |  | 
19 | GUGGAGGUAGGAUAUCCGCUUCCGGACAUGAGGAUCACCCAUGUUGUUCGGAUUGGACAGGGAGAAGGGCCCACAA [Eternabot (Original) Solution 37] (Eterna round: R97, puzzle: Exclusion 5) | 44.9 nM | 39.3 nM |  |  |  | 
20 | UGUGCGUCAGGAUAUUCUAUUUAUUACAUGAGGAUCACCCAUGUGAAUGUACAAGGGUGUGAAGAAGGGACUUGUG [LRO-Excl5-03-mod A17d by Omei] (Eterna round: R97, puzzle: Exclusion 5) | 808 nM | 1090 nM |  |  |  | 
21 | AAAUAGCAUGAGGAUAUUGAACUGUAUAUAGUACGAGAAGGCAUGACAUGAGGAUCACCCAUGUUUUGUUGGGA [EX6 #3] (Eterna round: R97, puzzle: Exclusion 6) | 114 nM | 33.2 nM |  |  |  | 
22 | UGUUGGCGAGGAUAUACAUGAGGAUCACCCAUGUGAGAGAAAAAAGUGAGGAAGAAAAGUAGAAGGCGCUGACG [salish99_ex3_r3_043] (puzzle: Exclusion 3) |  |  | 40 nM |  | 209 nM | 45.4 nM
23 | CUUAAAAGGAAGGAUAUGCUAGACGAAAGUCUAGCAGAAGGUCCUACAUGAGGAUCACCCAUGUGUCCUGUAAG [Mat - Exclusion 6 - Eli Mod - D41] (Eterna round: R97, puzzle: Exclusion 6) | 95.6 nM | 53.9 nM |  |  |  | 
24 | GGCGAAGUAGGAUAUACAUGAGGAUCACCCAUGUAACCUGAUGGCGUAGGUCUUCUAUGUAGAAGGGCUGCGCC [jl-ex3-4.38 ViennaUCT mod] (Eterna round: R97, puzzle: Exclusion 3) | 16 nM | 15.6 nM |  |  |  | 
25 | UAAAGUAUAUAGGAUAUCUAGCUGGUAACAGCUAGAGAAGGAUGUACAUGAGGAUCACCCAUGUAAAUCGUGAA [Ex6/13-A2] (Eterna round: R97, puzzle: Exclusion 6) | 20.5 nM | 16.9 nM |  |  |  | 
26 | AUAAUGUCAGGAUAUACUAAUGAUGAAUGAUUAGACAUUAUGUAGAAGGGACAUGAGGAUCACCCAUGUAAUAU [EX4 #2] (Eterna round: R97, puzzle: Exclusion 4) | 39.9 nM | 26.8 nM |  |  |  | 
27 | UAUUUAUAUGAAGGAUAUACUUAACAUGAGGAUCACCCAUGUGGUGUUGUGAGUGAGUGAGUUUAGUAGAAGGUCAAUUAUUUU [JMF's solution 30] (Eterna round: R96, puzzle: Exclusion NG 2) | 282 nM | 222 nM |  | 131 nM |  | 
28 | CGUGUCUUUCACGUGAGUGGUGGGUGCAACAGGUGGGUUACAUGAGGAUCACCCAUGUCCUCACUUGCUCGUCUUUU [Grok-var2-04] (puzzle: Sensor v3, turn-off variant 2) |  |  | 109 nM |  | 36.1 nM | 37.2 nM
29 | GAGCACUGCCGAGGAUAUCCACAUGAGGAUCACCCAUGUAGUGAAAAGUCCCAGUAGAACCAAAUGGAGAAGGUGGCAAGAUAU [Eternabot solution 21] (Eterna round: R96, puzzle: Exclusion NG 2) | 23.2 nM | 17.9 nM |  | 20 nM |  | 
30 | CUCUUGGCAGGAUAUGCUCUCUUAGACAUGAGGAUCACCCAUGUGUUCAUUCUUUCUUUUGCAGAAGGGCCUUAAC [JR_E5_Sub046] (Eterna round: R96, puzzle: Exclusion 5) | 128 nM | 76.9 nM |  | 57.9 nM |  | 
31 | UAUUAUCAAGUAAGAUCCUACAUGAGGAUCACCCAUGUGCUCGUCUUAUAAGGUACUGUGACGAAAGUCACGGUACC [Sensor 3, v1 - 74] (puzzle: Sensor v3, turn-off variant 1) |  |  | 332 nM |  | 31.3 nM | 33.8 nM

Source: the supplement of paper PMC9170038
